Assay results: patent publication US20080050763A1 (INSTITUT PASTEUR, published 2008)

Target: T1, IKKβ, endogenous, in Rat-1 and 5R cell extracts (rat (from the cell line Rat-1; not …, UniProt Q9QY78 1-757)
T1 construct: Endogenous protein of a cell extract; also called IKK-beta
T1 sequence (looked up): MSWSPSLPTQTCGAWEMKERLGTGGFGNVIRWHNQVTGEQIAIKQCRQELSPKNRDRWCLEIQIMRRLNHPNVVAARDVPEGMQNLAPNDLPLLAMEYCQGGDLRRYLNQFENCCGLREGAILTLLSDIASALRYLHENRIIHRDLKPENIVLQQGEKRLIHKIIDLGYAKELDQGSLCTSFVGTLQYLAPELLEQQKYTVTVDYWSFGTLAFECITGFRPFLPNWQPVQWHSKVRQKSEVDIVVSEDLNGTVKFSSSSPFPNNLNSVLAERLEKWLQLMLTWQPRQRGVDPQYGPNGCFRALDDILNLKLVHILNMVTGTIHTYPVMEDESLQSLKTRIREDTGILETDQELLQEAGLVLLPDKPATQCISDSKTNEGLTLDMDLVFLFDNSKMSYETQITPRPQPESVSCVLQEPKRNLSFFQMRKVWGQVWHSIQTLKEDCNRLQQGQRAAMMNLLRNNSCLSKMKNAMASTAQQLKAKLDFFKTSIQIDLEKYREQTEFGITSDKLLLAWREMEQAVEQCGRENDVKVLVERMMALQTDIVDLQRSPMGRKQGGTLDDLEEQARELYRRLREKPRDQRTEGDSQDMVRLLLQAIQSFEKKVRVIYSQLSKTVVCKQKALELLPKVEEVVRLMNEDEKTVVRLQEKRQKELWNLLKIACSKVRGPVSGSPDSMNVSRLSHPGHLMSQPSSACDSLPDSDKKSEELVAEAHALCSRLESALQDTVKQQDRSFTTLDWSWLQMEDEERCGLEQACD
Assay: glycerol gradient ultracentrifugation of cell extracts, co-migration
Method: Fractions (160 μl) were collected using the Piston Gradient Fractionator (Biocomp, Serlabo) and their absorbance at 280 nm was measured. To calibrate the gradient, standard proteins were applied to glycerol gradient and in parallel. The reproducibility of each glycerol gradient was also checked by measuring in each fraction the enzymatic activity of an endogenous marker, NDP kinase (110 kDa).

binding result: binds
B1: NEMO (NF-κB essential modulator), endogenous, in Rat-1 cell extracts (other, UniProt Q6TMG5 1-412, looked up)
chain: MSRHLWKNQLSEMVQPSGGPAEDQDMLGEESSLGKPAMLHLPSEQGTPETLQRCLEENQELRDAIRQSNQMLRERCEELLHFQVSQREEKEFLMCKFQEARKLVERLSLEKLDLRRQREQALEDLEHLKKCQQQMAEDKASVKAQVTSLLGELQESQSRLEAATKERQTLEGRIRAVSEQVRQLESEREVLQQQHSVQVDQLRMQNQSVEAALRMERQAASEEKRKLAQLQAAYHQLFQDYDSHIKSSKGMQLEDLRQQLQQAEEALVAKQELIDKLKEEAEQHKIVMETVPVLKAQADIYKADFQAERHAREKLVERKELLQEQLEQLQREFNKLKVGCHESARIEDMRKRHVETSQPPLLPAPAHHSFHLALSNQRRSPPEEPPDFCCPKCQYQAPDMDTLQIHVMECIE
notes: Endogenous protein of a cell extract; also called IKK gamma
